The data set can be described thus: label from the status in PepcDB records.

Regarding “MAPRDIRPGAEYGDIIEEAIVTCKVFLIVFSETSQISRWVRSELNIGFSSNKPIIPFRIDPTDLKGSMKLMLNDKHWLNAYPNPEEKFSELAAVILDLLQHPAVDTISPPGFQPASNVASADGSNAGAQGLFGKLLNQLFVKRRVKVTSDHAAEIFLNGERKGKLDAYETGNYSVSEDFYQLEVYSCEYGKKVKCEYSGSFSNSSTVIISVDMATAEKQYLMKAKNITSGQINDLGIIFLDEGKFEDAQECFLKAASMGEAAAAYNLGMMYHFGKGVEIDYDVAREYYEEAVKSDYPLALNNLGSIYYNGHGVRKDIAKSFPYFCRAAERGVESAQFTVATMLFYGQGVAVDKAKAKKWFQKAAAQGCKDSQNYLNSWVDDLEHHHHHH”, the protein production entry is recorded as “not failed”.

On to “MAQFLEKATSALSEAKESVTSTAESVTASLTDAEKTVNQTARSTLTDAETTVAASVETVKTEAAAAPDKASGVSTQAKDAVDKAFSRGIEGAKSLLQTFEAKSSDISSKLVGGVTNLVSGASSSTVANRDLPVSTDNQPLLASGEKTPWWKNCCGVLDLFKKDT”, for which the protein production entry was “failed”.

Consider “MAQFLRRFSSSPMANEDEFQSPVEPSQQQSQDCVSESYLIGFVIANIVGLKYYSGRINGREMVGLVREPLNVYDNNAIRVLNTRSEQVGHIERTVAAVLAPMIDSHTIVVEGIVPNTRSNSNRYRIPCQIHVFAKLEASSTVKSTISRGGLVLISESDTSFGLSEAVVVKEQMGNGDKRSVDKIFKLVDENVKLMGKLVAAEPPREVIKSELFAHQKEGLGWLLHREKSGELPPFWEEKDGEFLNTLTNYRSDKRPDPLRGGVFADDMGLGKTLTLLSLIAFDRYGNASTSTPTEEPLDGEGDKIEKKGKKRGRGKSSESVTRKKLKTDDVVGMNVSQKTTLIVCPPSVISAWITQLEEHTVPGILKVYMYHGGERTDDVNELMKYDIVLTTYGTLAVEESWEDSPVKKMEWLRIILDEAHTIKNANAQQSRVVCKLKASRRWAVTGTPIQNGSFDLYSLMAFLRFEPFSIKSYWQSLIQRPLGQGNKKGLSRLQVLMATISLRRTKEKSLIGLPPKTVETCYVELSPEERQLYDHMEGEAKGVVQNLINNGSLMRNYSTVLSIILRLRQLCDDMSLCPPELRSFTTSTSVEDVTDKPELLQKLVAALQDGEDFDCPICISPPTNIIITRCAHIFCRACILQTLQRSKPLCPLCRGSLTQSDLYNAPPPPPDSSNTDGEDAKSSTKSSKVSALLSLLMASRQENPNTKSVVFSQFRKMLLLLETPLKAAGFTILRLDGAMTVKKRTQVIGEFGNPELTGPVVLLASLKASGTGINLTAASRVYLFDPWWNPAVEEQAMDRIHRIGQKQEVKMIRMIARNSIEERVLELQQKKKNLANEAFKRRQKKDEREVNVEDVVALMSL”, for which the protein production entry was “failed”.

“MAQNPERRAALVNAAIEVLAREGARGLTFRAVDVEANVPKGTASNYFPSRDDLFDQVGKRIHERLGPDPSVVEESGRKPQNLELAIEYMQGLFGRITRDRTGYLALQELRLEAVRRPELRTTLTRTISENLKRDIGFHLDSGLPGDRSTVLMLYLAMNALIVEHLTLPGVLEGVDTERLVADLVTRAVATPDA”: the protein production result is “not failed”.

In the case of “MAQREIRLVDNEYPSPSMTHPPIPLSDIALTGIFEISKILTSPARLEITLANVVNLLQSFLQMRNGVVSLLADDGVPDITVGVGWNEGSDNRYRARLPQKAIDQIVATAVPLVADNVSAHPMFTAADAMALGATDEIRVSFIGVPIRIDSRVVGTLSIDRVRDGRSHFRMDADVRFLTMVANLIGQTVKLHRVVARDRERLMAESHRLQKELS”, the protein production entry is “failed”.

In the case of “MAQSFLLMGALIQHHLKGEKADLLTPEKLLEAANKQGTVPSRVRYQWMEDEETGRLKAVGYHTSMESGRDQVRVRLLKHDFPNNRYEFWEEGATGPTILWTPDNPGIELPTDTAHGEQPVIPSAIPGLEIPEMDDVSILATPMPDEKDFRDYILVFPENAFPPIYVYLSKKIDTPIWLEHHHHHH”, the protein production entry is “not failed”.

In the case of “MAQVINEMDVPSHSFVFHGTGERYFLICVVNVLLTIITLGIYLPWALMKCKRYLYANMEVNGQRFSYGITGGNVFFSCLVFVFFYFAILMTVSADMPLIGCVLTLSLLVLLIFMAAKGLRYQALMTSLNGVRFSFNCSMKGVWWVTFFLPILMAIGMGTVFFISTKMLHANSSSSVIVSVVLMAIVGIVSIGIFNGTLYSLVMSFLWSNTSFGIHRFKVKLDTAYCIKYAILAFLALLPFLAVAGYIIFDQILNAYDSSVYANDDIENLQQFMEMQRKMIIAQLIYYFGIAVSTSYLTVSLRNHFMSNLSLNDGRIRFRSTLTYHGMLYRMCALVVISGITGGLAYPLLKIWMIDWQAKNTYLLGDLDDLPLINKEEQPDKGFLASISRGIMPSLPFL”, the protein production entry is reported as “failed”.

Consider “MAQYPEQLNGIFQALADPTRRAVLGRLSRGPATVSELAKPFDMALPSFMKHIHFLEDSGWIRTHKQGRVRTCAIEKEPFTAVEAWLAEQQELWESRTDRLEQFVTEHTVTAHAKATPQ”, for which the protein production entry was “not failed”.

Regarding “MAREFKRSDRVAQEIQKEIAVILQREVKDPRIGMVTVSDVEVSSDLSYAKIFVTFLFDHDEMAIEQGMKGLEKASPYIRSLLGKAMRLRIVPEIRFIYDQSLVEGMRMSNLVTNVVREDEKKHVEESN”, the protein production entry is listed as “not failed”.

As to “MARIIRRPLNLTAAVRFRLSPLSPFSGNSGSINSETTSWSELIRVPSLVEGCDYKHWLVLMKPPNGYPTRNHIVQSFVETLAMALGSEEEAKRSIYSVSTKYYYAFGCRIHEPLTYKIRSLPDVKWVLPDSFIVDGDNRYGGEPFVDGEVVPYDEKYHADWLRDQTDEDAKSGVVKKKHRRKRKKKLI”, the protein production result is listed as “failed”.

For “MARLILERFLQEHEETPPSKSIINSMLRDPSQIPDGVLANQVYQCIVNDCCYGPLVDCIKHAIGHEHEVLLRDLLLEKNLSFLDEDQLRAKGYDKTPDFILQVPVAVEGHIIHWIESKASFGDECSHHAYLHDQFWSYWNRFGPGLVIYWYGFIQELDCNRERGILLKACFPTNIVTLCHSIA”, the protein production entry was “failed”.

“MARPSGPATMRTTDGGPMRDIDWLLTDAHALRERGELDPARALYDEALEKARATGETEGLAKALRHVSDMDREAGRLEAALAAAEEAATLYGALGREHRLDLANALRLTALALEALGRPALQPWREAGDLYAELDIAAGLAEAERHLGLVVRPAQSVELEPLARLWWQGWRDAHLPIVPEALARLRTLESFTTRMAAALPQVRVLGPVGAPIGLHLIKDDELNQLYLAAEARGAGFAAVLMADAEAHLADAGVRKAWLACAIGNDRAARFYEKSGWTRARAEIVPTETPAGPFPLEVWRYEKVLTRSEPQTL”: the protein production entry was “failed”.

Consider “MARREICNKGVVAGVQYSHSHRQSKRTWAPNIKKVKAIVKGTPKTVHVCTRCLRSEKFKELYKKSLAKMQFNNCIFILHKNKGLEHHHHHH”, for which the protein production result is reported as “not failed”.

Take “MARSKVKNLLLLKQIHSAVSQIKKGKLDKALETLDKAETSARQSKSTDALYYILFTRGGILYSAKEYDQALEAYEKALEAGSDLLKTDPENADYQHYMGTTLSNTGNLLKKKSEIDKADEYYSQARKIYFDLIKKDPQNAVYQSYAGENLNNYGELLMESGSLEKACEILREAIEIYEKLYKEKPDNLGYQAELSVALSQLGGCLKHQVPEESGAAKEKLEKALELQESLLDQQPENEKVKEAIALTEERLKGL”: the protein production result is “failed”.

Regarding “MARTLFLEEGPMFFEKIAPYTYRIPRQGKMRVDAVFFASKEILKDLEAENYASLQQLMNVATLPGIVEPALAMPDIHWGYGFPIGGVAAFDPEEGGVVSPGGVGFDINCGVRLLASHLTLEDLLPRQKELADALYRLVPSGVGSERRDVRFSKRELKEILKEGAGWLVKRGYGYPEDVRFIESQGRLPWANPDKVSERAFERGAPQIGTLGSGNHFLEVQYVDEVYDEEAALAFGLFKGQVTVLIHTGSRGLGHQVCQDYVERFLKVAPRYGIELVDKQLAAAPIKSPEGQDYLQAMAAAANFAFANRQLIAHFVREAFEKVGFTPRDHGLRVLYDLAHNNAKFEEHRGRRVLVHRKGATRAFGPGHPEVPEEYRRVGQPVLVPGDMGRYSYVLAGTEKAMEVSFGSSCHGAGRKMSRHQAKKVARERNLVKELAERGILVRAATRATVDEEMPEAYKDVSLVVEAVEGAGIGKKVARLRPLIVVKG”, the protein production result was “not failed”.

As for “MARVVVDAQAARAIGKGAMIVFKKGVVRVEGDIKPGDIVEVYTRGGKFLGKGFANPNSNIMVRIVTKDKDVEINKDLFKRRIKKANEYRKKVLKYTNVYRMVYGEADYLPGLIVDRFNDIASLQISSAGMERFKLDVAEAIMEVEPGIETVFEKNTGRSRRREGLPEIERVLLGKEKYRTIIQEGRAKFIVDMRGQKTGFFLDQRENRLALEKWVQPGDRVLDVFTYTGGFAIHAAIAGADEVIGIDKSPRAIETAKENAKLNGVEDRMKFIVGSAFEEMEKLQKKGEKFDIVVLDPPAFVQHEKDLKAGLRAYFNVNFAGLNLVKDGGILVTCSCSQHVDLQMFKDMIIAAGAKAGKFLKMLEPYRTQAPDHPILMASKDTEYLKCLFLYVEDMR”, the protein production entry is on record as “not failed”.

For the sequence “MARYLVVAHRTAKSPELAAKLKELLAQDPEARFVLLVPAVPPPGWVYEENEVRRRAEEEAAAAKRALEAQGIPVEEAKAGDISPLLAIEEELLAHPGAYQAIVLSTLPPGPSRWLRLDVHTQAERFGLPVIHVIAQAA”, the protein production result is reported as “not failed”.

With “MASDSGNQGTLCTLEFAVQMTCQSCVDAVRKSLQGVAGVQDVEVHLEDQMVLVHTTLPSQEVQALLEGTGRQAVLKGMGSGQLQN”, the protein production result is on record as “not failed”.

For “MASEQEKTADFGFRTVAKDEKEVMVAEVFHSVAAKYDLMNDLMSFGIHRIWKRFTIECSGVRRNQRVLDLAGGTGDLTAKFSRMVGEGGEVILADINASMLKVGREKLRNKGIIDNINYVQANAEALPFPDDFFDCITISFGLRNVTDKNKALRSMYRVLKPGGRLLVLEFSKPVIKQLSTIYDAYSFHILPRIGEAVASDAGSYRYLAESIRMHPDQETLKGMMSDAGFDSVNYFNLTGGIVALHRGFKFLEHHHHHH”, the protein production result is recorded as “failed”.

Take “MASFYWRIKNEPYQVVECAMRALHFSSRHNKDIALVNLANVLHRAHFPADAAVVVHAALDDSDFFTSYYTLGNIYAMLGEYNHSVLCYDHALQARPGFEQAIKRKHAVLCQQKLEQKLEAQHRSLQRTLNELKEYQKQHDHYLRQQEILEKHKLIQEEQILRNIIHETQMAKEAQLGNHQICRLVNQQHSLHCQWDQPVRYHRGDIFENVDYVQFGEDSSTSSMMSVNFDVQSNQSDINDSVKSSPVAHSILWIWGRDSDAYRDKQHILWPKRADCTESYPRVPVGGELPTYFLPPENKGLRIHELSSDDYSTEEEAQTPDCSITDFRKSHTLSYLVKELEVRMDLKAKMPDDHARKILLSRINNYTIPEEEIGSFLFHAINKPNAPIWLILNEAGLYWRAVGNSTFAIACLQRALNLAPLQYQDVPLVNLANLLIHYGLHLDATKLLLQALAINSSEPLTFLSLGNAYLALKNISGALEAFRQALKLTTKCPECENSLKLIRCMQFYPFLYNITSSVCSGNCHEKTLDNSHDKQKYFDNSQSLDAAEEEPSERGTEEDPVFSVENSGRDSDALRLESTVVEESNGSDEMENSDETKMSEEILALVDEFQQAWPLEGFGGALEMKGRRLDLQGIRVLKKGPRDGVARSSCYGDCRSEDDEATEWITFQVKRVKKPKGDHKKTPGKKVETGQIENGHRYQANLEITGPKVASPGPQGLLDWKTRKVP”: the protein production result is reported as “failed”.

As to “MASGQFVNKLQEEVICPICLDILQKPVTIDCGHNFCLKCITQIGETSCGFFKCPLCKTSVRKNAIR”, the protein production entry is on record as “not failed”.

Regarding “MASGSTQVKYLGIYQKMKQQILDGEYKINEKIPSSPVLAEEFDVSVLTIKKALDLLVRDGYIIRRRGSGTVVQDWRQQEKARMIQTLTGTKAVYGSEVESKIIEFTIVGADEIIAEKLGISVGDFVYKIIRLRIIHSIPTIMEHTWMPISVIPGVEVSVLEESIYSHIQNKLGLQVGTSVVRVKGIRPDDKEKQFMNLTNQDFLMRVEQVAYLTDGRTFEYSYADHLPETFEFETVITAKSYKEA”, the protein production entry is listed as “not failed”.

Source of the values: a protein production outcome set (Wang et al. 2014).
